The chains are these.
B1: Cdc15 F-BAR (aa 19–312) (domain or fragment, S. pombe, UniProt Q09822 19-312, looked up)
chain: SVKFRDNFWGSEDAGMDALMSRTKSSLSVLESIDEFYAKRASIEREYASKLQELAASSADIPEVGSTLNNILSMRTETGSMAKAHEEVSQQINTELRNKIREYIDQTEQQKVVAANAIEELYQKKTALEIDLSEKKDAYEYSCNKLNSYMRQTKKMTGRELDKYNLKIRQAALAVKKMDAEYRETNELLLTVTREWIDRWTEVCDAFQHIEEYRLEFLKTNMWAYANIISTACVKDDESCEKIRLTLENTNIDEDITQMIQNEGTGTTIPPLPEFNDYFKENGLNYDIDQLISK

The assay “Cdc15 F-BAR (aa 19–312)” has as its target B1. Put plainly: pull-down.
In a further assay the target is T1, MBP-Cdc12 (aa 1–764) (S. pombe, UniProt Q10059 1-764).
T1 sequence (looked up): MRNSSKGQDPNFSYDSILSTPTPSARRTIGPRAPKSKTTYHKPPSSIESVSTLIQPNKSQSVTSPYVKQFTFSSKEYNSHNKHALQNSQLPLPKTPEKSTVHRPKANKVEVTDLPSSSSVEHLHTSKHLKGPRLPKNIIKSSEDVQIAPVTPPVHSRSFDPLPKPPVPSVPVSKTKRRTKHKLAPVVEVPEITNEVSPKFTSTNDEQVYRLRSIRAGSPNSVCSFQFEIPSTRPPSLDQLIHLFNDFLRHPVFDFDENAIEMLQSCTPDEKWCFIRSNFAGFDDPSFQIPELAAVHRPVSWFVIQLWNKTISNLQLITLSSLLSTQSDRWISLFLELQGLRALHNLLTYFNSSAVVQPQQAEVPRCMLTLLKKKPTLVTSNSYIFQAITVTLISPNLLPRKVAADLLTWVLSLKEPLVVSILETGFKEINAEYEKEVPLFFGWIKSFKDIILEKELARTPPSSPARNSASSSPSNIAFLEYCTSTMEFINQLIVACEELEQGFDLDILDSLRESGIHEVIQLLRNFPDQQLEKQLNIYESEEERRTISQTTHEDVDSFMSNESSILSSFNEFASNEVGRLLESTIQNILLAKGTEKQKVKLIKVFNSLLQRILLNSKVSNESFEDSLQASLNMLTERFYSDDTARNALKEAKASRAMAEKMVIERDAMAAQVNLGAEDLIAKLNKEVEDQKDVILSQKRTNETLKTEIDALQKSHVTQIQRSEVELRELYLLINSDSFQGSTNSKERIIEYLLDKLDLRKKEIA
Put plainly: pull-down.

Ends that are not written are not given here.

Broadly, the Kd is a measure of binding affinity in units of concentration. A high value points to weaker binding. In turn, TPTPSARRTIGPRAPKSKTTY (peptide, UniProt Q10059 20-40, looked up, also: biotinylated, position not given here) [Cdc12 (aa 20–40) synthetic peptide] yielded a Kd in the assay with Cdc15 F-BAR (aa 19–312) of 1.1 nM. In other words, the single-digit nanomolar range.

In the case of B1, in the assay with MBP-Cdc12 (aa 1–764), the binding result is reported as “binds”.
